Assay results taken from patent US20240262893A1.

B1: R2D9 CDR3-knob (peptide)
peptide: ITHKTCPNGYNWFDRCCSWDGTCGDGCCSNRAWPSGNGRADSSIGETYGYEF
modifications: not checked
B2: purified R2G3 CDR3-knob (after enterokinase cleavage from trxA) (peptide)
peptide: EGDKTCPDGYEHTCGCIGGCGCKRSACIGALCCQASLGGWLSDGETYTYEF
modifications: not checked

How the values were obtained:
[1] = biological target: SARS-CoV-2 B.1.351 ('SA', beta) variant spike protein on pseudotyped virus or live virus (SARS-CoV-2 (B.1.351)), P0DTC2; experiment: cell-based or functional assay
[2] = biological target: SARS-CoV-2 B.1.1.7 ('UK', alpha) variant spike protein on pseudotyped virus or live virus (SARS-CoV-2 (B.1.1.7)); experiment: cell-based or functional assay

Binder	pseudovirus neutralization, ng/mL (quantity not given) [1] [ng/mL]	live SARS CoV-2 neutralization, ng/mL (quantity not given) [1] [ng/mL]	live SARS CoV-2 neutralization, ng/mL (quantity not given) [2] [ng/mL]
B1	22.6		
B2	66.2	374	2.48
